The source of these data is patent US20230052369A1 (Zymeworks, published 2023).

The target in assay [1] is T1, 4-1BB human (human 4-1BB ECD-TEV-IgG1 hinge-CH2-CH3-10x His) (human).
T1 construct: 4-1BB residues 24-186 fused to TEV site, IgG1 Fc and His tag; the entry is the whole fusion; also called soluble human 4-1BB-Fc
Put plainly: ELISA, coated 4-1BB-Fc. A general note: An ELISA detects its analyte on a solid surface through an enzyme-linked reagent.

For assay [2], the target named is T2, 4-1BB dog (dog 4-1BB ECD-TEV-IgG1 Fc-10x His) (dog).
T2 construct: Uniprot E2R1R9 residues 24-186 fused to TEV site, IgG1 Fc and His tag
The experiment in a line: ELISA, coated 4-1BB-Fc.

In assay [3] the target is T3, 4-1BB dog-human (human-dog chimeric 4-1BB ECD-TEV-IgG1 Fc-10x His) (human with dog residues in domain 4).
T3 construct: Human 4-1BB ECD with K115Q, C121R, R134Q, R154S and V156A (already in the entry); also called dog-human chimeric 4-1BB; hybrid 4-1BB
The experiment in a line: ELISA, coated 4-1BB-Fc.

The target in assay [4] is T4, truncated human 4-1BB domain 3 and 4 only construct (residues 86-255), on cells (human, UniProt Q07011 86-255).
T4 construct: on 293E6 cells co-transfected with mouse 4-1BB; also called 4-1BB domain 3 and 4 only construct (amino acids 86-255)
The experiment in a line: flow cytometry, transfected 293E6 cells. For orientation: In flow cytometry, cells or beads pass a laser one at a time.

Assay [5] addresses T5, human 4-1BB, full-length, expressed on cells (human, UniProt Q07011 24-255).
T5 construct: also called CD137; TNFRSF9
The experiment in a line: flow cytometry, transfected 293E6 cells.

In assay [6] the target is T6, Mouse 4-1BB-Flag, on HEK293-6e cells (Mouse (Mus musculus), UniProt P20334 24-208).
T6 construct: also called CL#11063
The experiment in a line: CellInsight cell binding, transfected HEK293-6e.

Assay [7] addresses T7, purified human monomeric 4-1BB (human, UniProt Q07011 24-186).
T7 construct: the assay used the 4-1BB part released by Factor Xa with the Fc removed; also called h4-1BB; human 4-1BB
Put plainly: SPR, mean n=3. (In general: SPR reads the build-up and loss of mass on a sensor chip optically.)

The target in assay [8] is T8, Cyno 4-1BB-Flag, on HEK293-6e cells (Cynomolgus (Macaca fascicularis)).
T8 construct: also called Cynomolgus 4-1BB; CL#11070
T8 chain: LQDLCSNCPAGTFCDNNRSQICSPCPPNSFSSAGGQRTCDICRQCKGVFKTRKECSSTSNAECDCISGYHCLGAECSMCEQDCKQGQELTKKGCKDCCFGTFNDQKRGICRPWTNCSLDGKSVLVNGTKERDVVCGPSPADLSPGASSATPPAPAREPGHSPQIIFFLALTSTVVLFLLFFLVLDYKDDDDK
The experiment in a line: CellInsight cell binding, transfected HEK293-6e.

Assay [9] has as its target T5, human 4-1BB, full-length, expressed on …. The experiment in a line: flow cytometry, Jurkat-4-1BB.
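Wherever Kd is given: antibodies captured on anti-human Fc chip, 4-1BB injected as five-point two-fold series from 40 nM by single-cycle kinetics at 25 °C, sensorgrams fitted to 1:1 Langmuir model.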

T4 sequence (Q07011 86-255): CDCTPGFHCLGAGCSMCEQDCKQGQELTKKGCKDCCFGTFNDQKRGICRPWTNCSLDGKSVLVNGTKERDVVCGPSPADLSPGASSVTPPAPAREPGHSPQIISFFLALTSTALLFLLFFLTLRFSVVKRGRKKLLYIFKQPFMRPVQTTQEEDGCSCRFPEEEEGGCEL
T7 sequence (Q07011 other isoform, or with tags, fused parts or gaps limits assumed): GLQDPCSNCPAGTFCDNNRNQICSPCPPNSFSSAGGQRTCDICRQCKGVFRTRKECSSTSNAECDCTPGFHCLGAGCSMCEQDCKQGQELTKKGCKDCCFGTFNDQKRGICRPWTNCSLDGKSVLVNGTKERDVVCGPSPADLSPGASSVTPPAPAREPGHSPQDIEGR
T3 sequence (chain, as listed by the source mutant limits assumed): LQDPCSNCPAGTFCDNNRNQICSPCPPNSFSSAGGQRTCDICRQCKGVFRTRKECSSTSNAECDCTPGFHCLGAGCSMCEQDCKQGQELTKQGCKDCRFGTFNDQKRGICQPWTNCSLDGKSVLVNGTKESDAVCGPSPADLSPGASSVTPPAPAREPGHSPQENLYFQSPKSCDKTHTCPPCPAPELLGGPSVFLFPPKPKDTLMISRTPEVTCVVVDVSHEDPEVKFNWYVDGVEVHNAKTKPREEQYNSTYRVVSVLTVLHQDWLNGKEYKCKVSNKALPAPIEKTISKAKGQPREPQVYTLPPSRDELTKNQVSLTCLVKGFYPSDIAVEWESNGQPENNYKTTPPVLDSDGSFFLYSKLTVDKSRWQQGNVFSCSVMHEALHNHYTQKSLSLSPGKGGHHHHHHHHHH
T1 sequence (chain, as listed by the source limits assumed): as the sequence (chain, as listed by the source mutant limits assumed) above, with Q92K, R98C, Q111R, S131R, A133V counted along it
T6 sequence (P20334 other isoform, or with tags, fused parts or gaps limits assumed): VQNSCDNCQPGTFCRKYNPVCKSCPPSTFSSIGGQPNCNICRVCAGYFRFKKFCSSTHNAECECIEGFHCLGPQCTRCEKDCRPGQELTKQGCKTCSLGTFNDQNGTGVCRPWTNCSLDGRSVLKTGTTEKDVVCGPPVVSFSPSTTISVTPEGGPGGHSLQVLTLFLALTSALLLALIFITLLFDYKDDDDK
T2 sequence (chain, as listed by the source limits assumed): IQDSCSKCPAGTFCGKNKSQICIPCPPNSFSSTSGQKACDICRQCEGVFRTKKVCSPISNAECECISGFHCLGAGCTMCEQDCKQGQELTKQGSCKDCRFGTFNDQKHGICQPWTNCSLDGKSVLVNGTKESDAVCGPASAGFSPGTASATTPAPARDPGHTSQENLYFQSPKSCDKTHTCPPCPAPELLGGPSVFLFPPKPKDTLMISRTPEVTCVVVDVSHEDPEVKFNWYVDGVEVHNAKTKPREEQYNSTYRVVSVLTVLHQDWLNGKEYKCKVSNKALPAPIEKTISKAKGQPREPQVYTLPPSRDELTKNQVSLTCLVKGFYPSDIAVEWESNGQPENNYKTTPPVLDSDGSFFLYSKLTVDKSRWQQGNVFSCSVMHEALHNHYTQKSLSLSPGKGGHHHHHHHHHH
T5 sequence (Q07011 24-255): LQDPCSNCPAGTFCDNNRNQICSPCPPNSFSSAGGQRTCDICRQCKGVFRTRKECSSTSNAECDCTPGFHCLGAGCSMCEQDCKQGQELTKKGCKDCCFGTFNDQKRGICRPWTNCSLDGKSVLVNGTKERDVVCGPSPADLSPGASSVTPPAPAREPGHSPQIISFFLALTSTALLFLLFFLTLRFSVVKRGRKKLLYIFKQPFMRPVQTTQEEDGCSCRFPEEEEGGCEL

B1: v20037 (antibody, human IgG1, kappa, L234A L235A, V domains shown)
VH: QVQLKESGPGLVAPSQSLSITCTVSGFSLTSYAISWVRQPPGKGLEWLGVIWPGGGTNYNSALKSRLSISKDNSKSQVFLKMNSLQTDDTARYYCARGTGTWYFDVWGAGTTVTVSS
VL: DIQMTQTTSSLSASLGDRVTISCSASQGISNYLNWYQQKPDGTVKLLIYYTSSLHSGVPSRFSGSGSGTDYSLTISNLEPEDIATYYCQQYSDLPWTFGGGTKLEIKR
notes: Mouse-human chimera; also called 6B3
Turning to B1, the binding result in [1] is “binds”; in assay [2], “no binding”; in [3] it was “binds”; in assay [4], “no binding (tested: 2.5 µg of antibody)”; in assay [5], “binds”; in assay [6], “no binding”.

B2: v20032 (antibody, human IgG1, kappa, L234A L235A, V domains shown)
VH: QVQLKESGPGLVAPSQSLSITCTVSGFSLTSYAINWVRQPPGKGLEWLGVLWPGGGTNYNSALKSRLSISKDNSKSQVFLKMNSLQTDDTARYYCARGSGTWYFDVWGAGTTVTVSS
VL: DIQMTQTTSSLSASLGDRVTFSCSASQGISNYLNWYQQKPDGTVKLLIYYTSSLHLGVPSRFSGSGSGTDYSLTISNLEPEDIATYYCQQYSKLPWTFGGGTKLEIKR
notes: Mouse-human chimera; also called 4E6
For B2, the binding result in assay [1] is “binds”; in assay [2] it was “no binding”; in assay [3], “binds”; in assay [4], “no binding (tested: 2.5 µg of antibody)”; in assay [5], “binds”; in assay [6] it was “no binding”.

B3: v20022 (antibody, human IgG1, kappa, L234A L235A, V domains shown)
VH: QVQLKESGPGLVAPSQSLSITCTVSGFSLTTYAISWVRQPPGKGLEWLGIIWPGGGTNYNSALKSRLSISKDNSRSQVFLKMNSLQTDDTARYYCARGAGTWYFDVWGAGTTVTVSS
VL: DIQMTQSTSSLSASVGDRVTISCSASQGISNYLNWYQQKPDGTVKLLIYYTSSLHSGVPSRFSGSGSGTDYSLTISNLEPEDIATYYCQQYSKFPWTFGGGTKLEIKR
notes: Mouse-human chimera; also called 1C8; 1C8 mouse-human parental chimera
By Kd is commonly meant the concentration at which binding is half-saturated. Higher therefore signals lower affinity. One may read the EC50 as the midpoint of the concentration-response curve. Low readings indicate greater potency, high ones weaker potency. Regarding B3, the binding result is listed as “binds” in [1]; “no binding” in assay [2]; “binds” in [3]; “no binding (tested: 2.5 µg of antibody)” in [4]; “no binding” in assay [6]; “binds” in assay [8]. The molecule further showed a Kd in assay [7] of 582 nM. In assay [9], the EC50 was found to be 17.3 nM.

B4: v20025 (antibody, human IgG1, kappa, L234A L235A, V domains shown)
VH: QVQLKQSGPGLVQPSQSLSITCTVSGFSLTSYGVHWVRQSPGKGLEWLGVIWSGGSTDYNAAFISRLSISKDNSKSQVFFKMNSLQADDTAIYYCARNPLTATVMDYWGQGTSVTVSS
VL: DIVMTQSQKFMSTSVGDRVSVTCKASQNVGTNVAWYQQKPGQSRTVLIYSASYRHSGVPDRFTGSGSGTDFTLTISNVQSEDLAEYFCQQYNSYPLTFGTGTKLELKR
notes: Mouse-human chimera; also called 2E8
On to B4, for which the binding result is listed as “binds” in assay [1]; “no binding” in [2]; “binds” in assay [3]; “no binding (tested: 2.5 µg of antibody)” in assay [4]; “binds” in assay [5]; “no binding” in [6]. In addition, the binding result in assay [8] was “binds”.

B5: v20036 (antibody, human IgG1, kappa, L234A L235A, V domains shown)
VH: QVQLQESGPGLVQPTQSLSITCTVSGFSLISYGVHWVRQSPGKGLEWLGVIWSGGSTDYNAAFISRLSISKDNSKSQVFFKMNSLQADDTAIYYCARNPLTATVMDYWGQGTSVTVSS
VL: DIVMTQSQKFMSTSVGDRVSVTCKASQNVGTNVAWYQQKPGQSPKALIYSASYRDSGVPDRFTGSGSGTDFTLTISNVQSEDLAEYLCQQYNSYPLTFGAGTKLELKR
notes: Mouse-human chimera; also called 5G8; 5G8 mouse-human parental chimera
Turning to B5, the binding result in assay [1] is listed as “binds”; in [2], “no binding”; in assay [3], “binds”; in assay [4] it was “no binding (tested: 2.5 µg of antibody)”; in assay [6] it was “no binding”. Binding in assay [7] was characterised by a dissociation constant (Kd) of 266 nM. The EC50 in assay [9] worked out at 16.9 nM.

B6: v20031 (antibody, human IgG1, kappa, L234A L235A, V domains shown)
VH: QVQLQQSGPELVKPGASVKISCKASGYVFSSYWMNWVKQRPGKGLEWIGRIYPGNGDTNYNGKFKDKATLTADKFSSTAYMQLSNLTSEDSAVYFCASYYELDYWGQGTSVTVSS
VL: DVVMTQTPLSLPVSLGDQASISCRSSQSLVHSNGNTYLHWYLQKPGQSPKLLIYKVSNRFFGVPDRFSGSGSGTDFTLKISRVEAEDLGVYFCSQTTYVPLTFGAGTKLELKR
notes: Mouse-human chimera; also called 4B11; printed as 4B1
Consider B6, for which the binding result in assay [6] and in assay [8] was “no binding” throughout.

B7: v20023 (antibody, human IgG1, kappa, L234A L235A, V domains shown)
VH: EVQLVESGGGLVKPGGSRKLSCAASGFTFSEFGMHWVRQAPDKGLKWVAYISSGGSTIYYADTVKGRFTISRDNAKNTLFLQMTSLRSEDTAMYYCARDWVDYWGQGTTLTVSS
VL: NIVMTQSPKSMSMSVGERVTLSCKASENVGSYVSWYQQKPEKSPKLLIYGASNRYTGVPDRFTGSGSATDFTLTISSVQAEDLADYHCGQSYSYPLTFGAGTKLELKR
notes: Mouse-human chimera; also called 1G1; 1G1 mouse-human parental chimera
For the molecule B7, the binding result is recorded as “binds” in assay [1]; “binds” in assay [2]; “no binding (tested: 2.5 µg of antibody)” in [4]; “no binding” in [6]; “binds” in assay [8]. Further, binding in assay [7] was put at a Kd of 49.6 nM. This molecule returned an EC50 in assay [9] of 0.337 nM.

B8: v20029 (antibody, human IgG1, kappa, L234A L235A, V domains shown)
VH: QVQLQESGGGLVKPGGSRKLSCAASGFTFSEFGMHWVRQAPDKGLEWVAYISSGSSTIYYADTVKGRFTISRDNAKNTLFLQMTSLRSEDTAMYYCARDWVDYWGQGTALTVSS
VL: NIVMTQSPKSMSMSVGERVTLSCKASENVGSYVSWYQQKPEKSPKLLIYGASNRYTGVPDRFTGSGSATDFTLTISSVQAEDLADYHCGQSYSYPLTFGAGTKLELKR
notes: Mouse-human chimera; also called 3E7
With B8, the binding result in assay [1] is recorded as “binds”; in assay [2], “binds”; in assay [4] it was “no binding (tested: 2.5 µg of antibody)”; in assay [5], “binds”; in [6], “no binding”; in [8], “binds”.
